# B1: rLZ-8: Recombinant Ganoderma Lucidum Immune Regulatory Protein expressed in Pichia pastoris (protein, UniProt P14945 2-111, looked up)
# Immunomodulatory protein Ling …: SDTALIFRLAWDVKKLSFDYTPNWGRGNPNNFIDTVTFPKVLTDKAYTYRVAVSGRNLGVKPSYAVESDGSQKVNFLEYNSGYGIADTNTIQVFVVDPDTNNDFIIAQWN
# Tests used:
# spleen = test: Colony forming unit-spleen and spleen index in radiation model of mice; assay type: in vivo
# Experimental: rLZ-8 preparation of sterile saline. Divide them into 5 ∞g·kg^−1, 2.5 μg·kg^−1, 1.25 μg·kg^−1, 0.62 μg·kg^−1 dose groups. 0.2 ml/vial.
# Genlei™ Scimax™ [Recombinant human granulocyte colony-stimulating factor injection (rhG-CSF)], production lot: 20060403; 150m/vial is prepared with sterile normal saline into the preparation of 3.2 μg·kg^−1, 0.2 ml/vial.
# The mice were irradiated by 7.5 Gy γ-ray (180 mV, 15 mA) and then divided into seven groups (n=10): (A) negative control; (B) 5 μg·kg−1 dose; (C) 2.5 μg·kg−1 dose; (D) 1.25 μg·kg−1 dose; (E) 0.62 μg·kg−1 dose; (F) positive control (Genlei™ Scimax™); (G) model group. Together with modeling, mice in each group were administered with Genlei™ Scimax™ and rLZ-8 for 9 days, drew blood from tail, tested the number of WBC, weight spleen, calculated index of spleen.
# [1] = system: Human Promyelocytic Leukemia NB4 Cells; test: Killing effect of rLZ-8 on NB4 cells (MTT, OD570nm); assay type: cell-based
# Experimental: After filtration and degerming, we prepared 8 concentrations using IMDM culture medium which are respectively 0.78 μg·ml^−1, 1.56 μg·ml^−1, 3.125 μg·ml^−1, 6.25 μg·ml^−1, 12.5 μg·ml^−1, 25 μg·ml^−1, 50 μg·ml^−1, 100 μg·ml^−1.
# On 96-orifice culture medium plate, the pilot orifice plus NB4 tumor cells 0.1 ml and rLZ-8 0.1 ml, rLZ-8 concentrates from low to high; negative control group plus NB4 tumor cells and culture medium of 0.1 ml respectively; positive drug control group arsenic trioxide As2O3; make six-aperture multipunches for each group. Placing in 37° C., 5% CO2 incubator 48 h, adding MTT15 μl (5 mg ml^−1) prior to the termination of 4 h, after the termination of cell culture by adding 100 μl 0.1 mol L^−1 hydrochloric acid isopropyl alcohol, testing on the enzyme-linked immunosorbent OD570nm values.
# WBC [2] = test: Prevention of radiation leucopenia model of mice, WBC; assay type: in vivo; set-up: unit not given here; settings: for WBC, 5th day (rLZ-8): 5th day of administration before radiation; for WBC, 5th day / WBC, 7th day: after 7.5 Gy γ-ray
# Experimental: rLZ-8 preparation of sterile saline. Divide them into 5 μg·kg^−1, 2.5 μg·kg^−1, 1.25 μg·kg^−1, 0.62 μg·kg^−1 dose groups. 0.2 ml/vial.
# Genlei™ Scimax™ [Recombinant human granulocyte colony-stimulating factor injection (rhG-CSF)], production lot: 20060403; 150 μg/vial is prepared with sterile normal saline into the preparation of 3.2 μg·kg^−1, 0.2 ml/vial.
# The mice were irradiated by 7.5 Gy γ-ray (180 mV, 15 mA) and then divided into seven groups (n=10): (A) negative control; (B) 5 μg·kg−1 dose; (C) 2.5 μg·kg−1 dose; (D) 1.25 μg·kg−1 dose; (E) 0.62 μg·kg−1 dose; (F) positive control (Genlei™ Scimax™); (G) model group. Before modeling 5 days, mice in each group were administered with Genlei™ Scimax™ and rLZ-8 for 5 days, on the 5th day, mice were radiated, for 5 days, and on the 7th day, drew blood from tail, tested the number of WBC, weight spleen, calculated index of spleen.
# WBC [3] = test: Cyclophosphamide low-leucocyte mice model, WBC; assay type: in vivo; set-up: unit not given here
# Experimental: rLZ-8 preparation of sterile saline. Divide them into 5 μg·kg^−1, 2.5 μg√kg^−1, 1.25 μg·kg^−1, 0.62 μg·kg^−1 dose groups.
# Genlei™ Scimax™ [Recombinant human granulocyte colony-stimulating factor injection (rhG-CSF)], production lot: 20060403; 75 μg/vial is prepared with sterile normal saline into the preparation of 3.2 μg·kg^−1, 0.2 ml/vial.
# Cyclophosphamide (CP) for injection (the production lot number 050216; 200 mg/vial) is prepared with sterile normal saline into the preparation of 12.5 mg·kg^−1, 0.2 ml/vial.
# Normal control group, several protein dose groups, positive control group (Genlei™ Scimax™).
# Excluding the normal control group (given same normal saline), each group of mice were given tail vein injection of cyclophosphamide, […], 0.2 ml/vial, for 3 consecutive days. On 3rd day, rat tail venous blood sampling, sent to Jilin University First Hospital laboratory, cell analyze the number of WBC. After successful modeling, they were given to the above groups respective dose of rLZ-8 and positive drugs (Genlei™ Scimax™) treatment, the normal control group and CP groups were given same normal saline, on the 3rd, 7th and 14th day of the treatment to draw venous blood from mice tail respectively, sent to Jilin University First Hospital testing the numbers of WBC. Compare WBC changes before and after the treatment for analysis of drug efficacy.
# [4] = system: mouse peritoneal S180 tumor cells; test: S180 ascites tumor inhibition experiment; assay type: in vivo, Mice; settings: rLZ-8 0.25-1 mg·kg^−1 tail venous injection, 10 days
# Experimental: Treatment after 24 h of vaccination. […] Daily weighing, observe the weight changes of mice, drawing weight growth curves.
molecule,measurement,setting,value
B1,colony forming unit-spleen number,spleen; rLZ-8 0.62 μg·kg^−1,8.9 ± 0.41
same,growth rate,spleen; rLZ-8 0.62 μg·kg^−1,50%
same,index (spleen),spleen; rLZ-8 0.62 μg·kg^−1,0.50 ± 0.10
same,colony forming unit-spleen number,spleen; rLZ-8 1.25 μg·kg^−1,6.3 ± 0.21
same,growth rate,spleen; rLZ-8 1.25 μg·kg^−1,30%
same,index (spleen),spleen; rLZ-8 1.25 μg·kg^−1,0.24 ± 0.13
same,colony forming unit-spleen number,spleen; rLZ-8 2.50 μg·kg^−1,14.3 ± 0.03
same,growth rate,spleen; rLZ-8 2.50 μg·kg^−1,69%
same,index (spleen),spleen; rLZ-8 2.50 μg·kg^−1,0.52 ± 0.12
same,colony forming unit-spleen number,spleen; rLZ-8 5 μg·kg^−1,9.7 ± 0.16
same,growth rate,spleen; rLZ-8 5 μg·kg^−1,54%
same,index (spleen),spleen; rLZ-8 5 μg·kg^−1,0.22 ± 0.09
same,lethal effect in vitro on NB4 tumor cells (in words),[1]; 0.78-100 μg·ml^−1,strong lethal effect
same,Growth inhibition rate (%),"[1]; rLZ-8 0.78 μg ml^−1, 48 h",39%
same,OD570 nm,"[1]; rLZ-8 0.78 μg ml^−1, 48 h",0.71 ± 0.03
same,Growth inhibition rate (%),"[1]; rLZ-8 1.56 μg ml^−1, 48 h",44%
same,OD570 nm,"[1]; rLZ-8 1.56 μg ml^−1, 48 h",0.65 ± 0.05
same,Growth inhibition rate (%),"[1]; rLZ-8 3.125 μg ml^−1, 48 h",54%
same,OD570 nm,"[1]; rLZ-8 3.125 μg ml^−1, 48 h",0.53 ± 0.04
same,Growth inhibition rate (%),"[1]; rLZ-8 6.25 μg ml^−1, 48 h",61%
same,OD570 nm,"[1]; rLZ-8 6.25 μg ml^−1, 48 h",0.45 ± 0.02
same,Growth inhibition rate (%),"[1]; rLZ-8 12.5 μg ml^−1, 48 h",74%
same,OD570 nm,"[1]; rLZ-8 12.5 μg ml^−1, 48 h",0.30 ± 0.04
same,Growth inhibition rate (%),"[1]; rLZ-8 25 μg ml^−1, 48 h",81%
same,OD570 nm,"[1]; rLZ-8 25 μg ml^−1, 48 h",0.22 ± 0.01
same,Growth inhibition rate (%),"[1]; rLZ-8 50 μg ml^−1, 48 h",91%
same,OD570 nm,"[1]; rLZ-8 50 μg ml^−1, 48 h",0.11 ± 0.01
same,Growth inhibition rate (%),"[1]; rLZ-8 100 μg ml^−1, 48 h",93%
same,OD570 nm,"[1]; rLZ-8 100 μg ml^−1, 48 h",0.08 ± 0.01
same,"WBC, 5th day (rLZ-8)",WBC [2]; rLZ-8 0.62 μg·kg^−1,10.7 ± 0.45
same,"WBC, 5th day",WBC [2]; rLZ-8 0.62 μg·kg^−1,0.16 ± 0.31
same,"WBC, 7th day",WBC [2]; rLZ-8 0.62 μg·kg^−1,0.40 ± 0.12
same,"WBC, 5th day (rLZ-8)",WBC [2]; rLZ-8 1.25 μg·kg^−1,12.5 ± 0.45
same,"WBC, 5th day",WBC [2]; rLZ-8 1.25 μg·kg^−1,0.25 ± 0.11
same,"WBC, 7th day",WBC [2]; rLZ-8 1.25 μg·kg^−1,0.46 ± 0.11
same,"WBC, 5th day (rLZ-8)",WBC [2]; rLZ-8 2.5 μg·kg^−1,12.8 ± 0.54
same,"WBC, 5th day",WBC [2]; rLZ-8 2.5 μg·kg^−1,0.32 ± 0.15
same,"WBC, 7th day",WBC [2]; rLZ-8 2.5 μg·kg^−1,0.45 ± 0.20
same,"WBC, 5th day (rLZ-8)",WBC [2]; rLZ-8 5 μg·kg^−1,19.5 ± 0.32
same,"WBC, 5th day",WBC [2]; rLZ-8 5 μg·kg^−1,0.32 ± 0.18
same,"WBC, 7th day",WBC [2]; rLZ-8 5 μg·kg^−1,0.53 ± 0.35
same,"WBC, 3rdday of medication",WBC [3]; rLZ-8 0.62 μg·kg−1,6.4 ± 0.41
same,"WBC, 7thday of medication",WBC [3]; rLZ-8 0.62 μg·kg−1,27.2 ± 0.10
same,"WBC, 14thday of medication",WBC [3]; rLZ-8 0.62 μg·kg−1,13.9 ± 0.17
same,"WBC, 3rdday of medication",WBC [3]; rLZ-8 1.25 μg·kg−1,8.1 ± 0.17
same,"WBC, 7thday of medication",WBC [3]; rLZ-8 1.25 μg·kg−1,19.7 ± 0.17
same,"WBC, 14thday of medication",WBC [3]; rLZ-8 1.25 μg·kg−1,13.9 ± 0.14
same,"WBC, 3rdday of medication",WBC [3]; rLZ-8 2.5 μg·kg−1,6.6 ± 0.77
same,"WBC, 7thday of medication",WBC [3]; rLZ-8 2.5 μg·kg−1,22.8 ± 0.15
same,"WBC, 14thday of medication",WBC [3]; rLZ-8 2.5 μg·kg−1,15.2 ± 0.11
same,"WBC, 3rdday of medication",WBC [3]; rLZ-8 5 μg·kg−1,5.0 ± 0.12
same,"WBC, 7thday of medication",WBC [3]; rLZ-8 5 μg·kg−1,20.3 ± 0.11
same,"WBC, 14thday of medication",WBC [3]; rLZ-8 5 μg·kg−1,14.3 ± 0.21
same,growth of peritoneal S180 tumor cells (body weight curve),[4],inhibited mouse peritoneal S180 tumor cells growth
